Experimental data: patent US7449185 (Daiichi Sankyo, dated 2008)

What was measured:
[1] = molecular target: T1, osteoclastogenesis inhibitory factor (OCIF), recombinant, monomer or dimer type not specified at the place of … (human, UniProt O00300 22-401, 125I on tyrosine residues where used as 125I-labeled OCIF (Iodogen method)); assay: Scatchard plot of labeled OCIF on cell membrane (told in the general description)
T1 construct: Secreted protein, about 60 kDa as monomer and 120 kDa as dimer; also called recombinant OCIF
T1 sequence (looked up): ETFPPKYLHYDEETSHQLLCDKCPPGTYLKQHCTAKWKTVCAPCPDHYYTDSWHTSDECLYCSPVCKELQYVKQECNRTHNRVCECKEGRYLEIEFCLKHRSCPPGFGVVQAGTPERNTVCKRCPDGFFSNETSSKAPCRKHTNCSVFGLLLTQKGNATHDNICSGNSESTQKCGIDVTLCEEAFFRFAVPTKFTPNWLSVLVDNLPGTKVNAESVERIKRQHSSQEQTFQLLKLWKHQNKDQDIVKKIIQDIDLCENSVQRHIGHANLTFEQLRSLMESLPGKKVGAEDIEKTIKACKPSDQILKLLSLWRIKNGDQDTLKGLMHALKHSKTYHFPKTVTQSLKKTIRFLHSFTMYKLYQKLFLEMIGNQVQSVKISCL

[2] = molecular target: T2, OCIF, monomer type (60 kDa) (human, UniProt O00300 22-401, limits assumed, 125I on tyrosine residues (Iodogen method)); assay: Scatchard plot of 125I-OCIF binding to ST2 cells (passage about 10) cultured with vitamin D3 and dexamethasone
T2 construct: Monomer type of rOCIF, 60 kDa; also called monomer-form OCIF
T2 sequence (looked up): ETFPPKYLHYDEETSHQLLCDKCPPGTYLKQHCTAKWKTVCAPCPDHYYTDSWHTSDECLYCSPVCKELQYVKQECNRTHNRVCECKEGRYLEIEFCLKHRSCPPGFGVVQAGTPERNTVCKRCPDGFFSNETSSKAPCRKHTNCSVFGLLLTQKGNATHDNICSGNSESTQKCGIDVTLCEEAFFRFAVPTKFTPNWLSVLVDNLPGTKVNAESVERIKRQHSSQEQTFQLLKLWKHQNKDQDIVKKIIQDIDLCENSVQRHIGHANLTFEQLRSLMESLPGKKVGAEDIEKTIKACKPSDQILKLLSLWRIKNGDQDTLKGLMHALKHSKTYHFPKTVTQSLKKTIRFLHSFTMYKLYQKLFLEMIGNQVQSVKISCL
Experimental: Solutions for measuring non-specific binding were prepared by further adding 400-fold concentration of monomer-form OCIF to these solutions. […] The results were subjected to Scatchard Plot analysis to determine the dissociation constant of OCIF and OCIF-binding protein and the number (site) of OCIF-binding protein per a ST2 cell. […] Based on the finding in Example 5(1) that osteoclasts-formation supported by the ST2 cells with passage number about 40 was more extensive than that with passage number about 10, the number (the site) of the protein of the present invention expressed on the ST2 cell with a passage number about 40 was assessed.

B1: natural OCIF-binding protein (mouse OBM) on mouse osteoblastic stromal ST2 cells cultured with active-form vitamin D3 and dexamethasone (ligand)
chain: MRRASRDYGKYLRSSEEMGSGPGVPHEGPLHPAPSAPAPAPPPAASRSMFLALLGLGLGQVVCSIALFLYFRAQMDPNRISEDSTHCFYRILRLHENAGLQDSTLESEDTLPDSCRRMKQAFQGAVQKELQHIVGPQRFSGAPAMMEGSWLDVAQRGKPEAQPFAHLTINAASIPSGSHKVTLSSWYHDRGWAKISNMTLSNGKLRVNQDGFYYLYANICFRHHETSGSVPTDYLQLMVYVVKTSIKIPSSHNLMKGGSTKNWSGNSEFHFYSINVGGFFKLRAGEEISIQVSNPSLLDPDQDATYFGAFKVQDID
notes: also called the protein of the present invention; OBM on ST2 cells
Which results are given for B1?
Kd [1]: 0.1 to 0.5 nM; Kd [2]: 0.28 nM
